# Reference: patent US20220112288A1 (published 2022)
# Numbering of substitutions follows the chain as printed.
# B1: 75110_14H13A (antibody, V domains shown)
# VH: EVQLVESGGGLVQPGGSLRLSCAASGFTFSNYDMHWVRQATGKGLEWVSTIGTAGDTYYPGSVKGRFTISRKNAKNSLYLQMISLRAGDTAVYYCARGGDYYYGMDVWGQGTTVTVSS
# VL: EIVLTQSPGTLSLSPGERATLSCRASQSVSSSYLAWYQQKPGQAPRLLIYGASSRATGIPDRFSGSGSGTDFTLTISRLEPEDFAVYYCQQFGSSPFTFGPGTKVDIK
# notes: Tested as clonal hybridoma supernatant from AlivaMab Mouse Kappa mice: human variable regions, human kappa, mouse Fc
# B2: 75110_10O16A (antibody, V domains shown)
# VH: B1 VH with Y32S, K72E, I83N, D100L
# VL: ENVLTQSPGTLSLSPGERATLSCRASQSVSSSYLAWYQQKPGQAPRLLIYGASSRATGIPDRFSGSGSGTDFTLTISRLEPEDFAVYYCHQFGSSPFTFGPGTKVDIK
# notes: Tested as clonal hybridoma supernatant from AlivaMab Mouse Kappa mice: human variable regions, human kappa, mouse Fc (detected with anti-mouse Fc gamma); also called 75110_10016A
# B3: 75110_13C07A (antibody, V domains shown)
# VH: B1 VH with G10V, I69L, K72E, I83H, G99A, D100Y, Y101G
# VL: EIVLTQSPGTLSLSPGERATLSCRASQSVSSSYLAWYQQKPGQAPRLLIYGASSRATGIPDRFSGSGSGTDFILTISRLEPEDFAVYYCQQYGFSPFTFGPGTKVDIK
# notes: as for B1
# B4: 75110_13P22A (antibody, V domains shown)
# VH: QVQLQQWGAGLLKPSETLSLTCAAYGGSFSGYYWSWIRQSPGKGLEWIGEINQSGNTNYNPSLKSRVTISADTSKNQFSLKLSSVTAADTAVYYCARVLNWFDYWGQGILVTVSS
# VL: DIQMTQSPSSVSASVGDRVTITCRASQGISDWLAWYQQKSGKAPDLLIFAASSLQSGVPSRFSGSGSGTDFTLTISSLQPEDFATYYCQQANSFPYTFGQGTKLEIK
# notes: as for B1
# B5: 75110_11D03A (antibody, V domains shown)
# VH: EVQLVESGGGLVQPGGSLRLSCAASGFTFSSYWMSWVRQAPGKGLEWVANINQDGNEKYYVDSVKGRFTISRDNAKNSLFLQMNSLRAEDTAVYYCAREGGQWLALDYWGQGALVTVSS
# VL: B4 VL with D31S, S40P, D45K, L46F, F49S, A50G, Y96W, L104V
# notes: as for B1
# B6: 75110_12H19A (antibody, V domains shown)
# VH: B5 VH with K43Q, Q53E, Y60H, F68L, F80Y, A88G, E89V, Y95F
# VL: B4 VL with T20S, D31S, S40P, D45K, F49Y, A50G, S53G, Y96W, L104V
# notes: as for B1
# B7: 75110_12H17A (antibody, V domains shown)
# VH: B5 VH with S31D, N52K, Q53E
# VL: B4 VL with D31S, S40P, D45K, L46F, F49S, A50G, S63T, Y96W, L104V
# notes: as for B1
# B8: 75110_12C19A (antibody, V domains shown)
# VH: B5 VH with N52K, Q53E, N56S, E57D, F80Y, Y94H, A97V, A113T
# VL: B4 VL with A13G, D31S, S40P, D45K, F49Y, A50G, A84V, Y96W, L104V
# notes: as for B1
# B9: 75110_13P21A (antibody, V domains shown)
# VH: B4 VH with A24V, Y25S, S40P, Q53H, N56S, Y59C, A71V, K75N, W101Y, I109T
# VL: DIQMTQSPSSVSASVGDRVTITCRASPDIANWLAWYQQKPGKAPELLIYAASSLQSGVPSRFSGSGSGTDFTLTISSLQPEDFATYFCQQANSFPLTFGGGTKVESK
# notes: as for B1
# B10: 75110_12K21A (antibody, V domains shown)
# VH: B4 VH with A24V, Y25S, S40P, Q53H, N56S, Y59C, A71V, K75N, W101Y, I109T
# VL: B9 VL
# notes: as for B1
# B11: 75110_13C13A (antibody, V domains shown)
# VH: B4 VH with A24V, Y25S, S40P, Q53H, N56S, Y59C, A71V, V92M, W101F, I109T
# VL: B9 VL with S7T, D28G, A30S
# notes: as for B1
# B12: 75110_12H17A (antibody, V domains shown)
# VH: B5 VH with S31D, N52K, Q53E
# VL: B4 VL with D31S, S40P, D45K, L46F, F49S, A50G, S63T, Y96W, L104V
# notes: Tested as non-clonal AlivaMab Mouse Kappa hybridoma supernatant, captured by anti-mouse IgG Fc sensor
# B13: 75110_04P08A (antibody, V domains shown)
# VH: QVQLQQWGAGLLKPSETLSLTCAVYGGSLSGYYWSWIRQSPGKGLEWIGEINQSGSTNYNPSLKSRVTISVDTSKDQFSLRLTSVTAADTAVYYCTRVLNWFDPWGRGTLVTVSS
# VL: B4 VL with I21L, G28D, D31N, S40P, D45K, F49Y, P80T
# notes: as for B12
# B14: 75110_05B13A (antibody, V domains shown)
# VH: QVLLEQWGAGLLKPSETLSLTCAVYGGSFSGYYWTWIRQPPGKGLEWIGEINHRGSTNYNPSLKSRVTISIDTSKNQFSLKVKSVTAADTAMYYCTRPDSNWFDPWGQGTLVTVSS
# VL: B9 VL with P27Q, A30S, E45K, Y49F, F87Y, S106I
# notes: as for B12
# B15: 75110_03C01A (antibody, V domains shown)
# VH: B4 VH with A24V, N56S, A71V, N76D, L99I, Y104S, I109S
# VL: B4 VL with D31S, S40P, K42N, D45K, F49Y, A50D, L54F, P80T
# notes: as for B12
# B16: 75110_13P22A (antibody, V domains shown)
# VH: B4 VH
# VL: B4 VL
# notes: as for B12
# B17: 75110_01J09A (antibody, V domains shown)
# VH: B5 VH with A23V, I51T, N52K, Q53E, N56S, E57D, S71C, F80Y, A113T
# VL: DIQMTQSPSSVSASVGDRVTINCRASQGISSWLAWYQQKPGKAPNLLIFGASSLQSGVPSRFSGSGFGTDFSLTITTLQPEDFATYHCQQANSFPWTFGQGTKVEIK
# notes: as for B12
# B18: 75110_05L07A (antibody, V domains shown)
# VH: B5 VH with N56S, E57D, A75V, F80Y, M83I, A105T, A113T
# VL: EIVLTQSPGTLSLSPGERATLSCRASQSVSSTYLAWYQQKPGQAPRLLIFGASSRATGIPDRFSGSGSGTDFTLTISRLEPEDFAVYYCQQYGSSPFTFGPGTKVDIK
# notes: as for B12
# B19: 75110_12H19A (antibody, V domains shown)
# VH: B5 VH with K43Q, Q53E, Y60H, F68L, F80Y, A88G, E89V, Y95F
# VL: B4 VL with T20S, D31S, S40P, D45K, F49Y, A50G, S53G, Y96W, L104V
# notes: as for B12
# B20: 75110_07B16A (antibody, V domains shown)
# VH: B4 VH with A24V, N56S, A71V, N76D, L99I, Y104S, I109S
# VL: B4 VL with D31S, S40P, D45K, F49Y, A50D, L54F, P80T, E81D
# notes: as for B12
# B21: 75110_03L12A (antibody, V domains shown)
# VH: QVQLQQWGAGLLKPSETLSLTCAVYGGSFSGYYWSWIRQPPGKGLEWIGEINHSGSTNYNPSLKSRVTISVDTSENQFSLTLISVTAADTAVYYCVRLINWFDPWGQGTLVTVSS
# VL: B4 VL with G28D, D31N, S40P, D45K, E81D, K103N, E105G
# notes: as for B12
# B22: 75110_12K21A (antibody, V domains shown)
# VH: B4 VH with A24V, Y25S, S40P, Q53H, N56S, Y59C, A71V, K75N, W101Y, I109T
# VL: B9 VL
# notes: as for B12
# B23: 75110_06D16A (antibody, V domains shown)
# VH: B21 VH with D72V, E75K, T81K, I83S, V96A, L98V, I99L
# VL: B4 VL with G28D, S30A, S40P, D45K, F49Y, L54F, Y87F
# notes: as for B12
# B24: 75110_13P21A (antibody, V domains shown)
# VH: B4 VH with A24V, Y25S, S40P, Q53H, N56S, Y59C, A71V, K75N, W101Y, I109T
# VL: B9 VL
# notes: as for B12
# B25: 75110_13C13A (antibody, V domains shown)
# VH: B4 VH with A24V, Y25S, S40P, Q53H, N56S, Y59C, A71V, V92M, W101F, I109T
# VL: B9 VL with S7T, D28G, A30S
# notes: as for B12
# B26: 75110_01D24A (antibody, V domains shown)
# VH: B21 VH with T81K, I83N, V96A, I99V
# VL: B4 VL with D1E, G28D, D31N, S40P, D45N, S56T, E81D, T97S, K103N, E105G
# notes: as for B12
# B27: 75110_02E08A (antibody, V domains shown)
# VH: QVQLQESGPGLVKPSETLSLTCTVSGGSISTYYWTWIRQPAGKGLEWIGRVYTSGDTNYNPSLKSRVAMSLDTSKNQFSLKLSSVTAADTAVYYCARDSGALYSWNYGDAFDIWGQGTMVTVSS
# VL: DIQMTQSPSAMSASVGDRVTITCRASQDISNYLAWFQQKPGKVPKRLIYAASSLQSGVPSRFSGSGSGTEFTLTISSLQPEDFATYYCLQHNSYPRTFGQGTKVEIK
# notes: as for B12
# B28: 75110_04B08A (antibody, V domains shown)
# VH: QVQLVESGGGVVQPGRSLRLSCTASGFNFINYGIHWVRQAPGKGLEWVTIIWYDGSKKYYADSVKGRFAISRDNSKNTLYLQMNSLRAEDTAVYYCAREDDWNDGLAYWGQGTLVTVSS
# VL: AIQMTQSPSSLSASVGDRVTITCRASQDIRNDLGWYQQKPGKAPNLLIYAASNLQSGVPSRFSGSGSGTDFTLTISSLQPEDFATYYCLQDSNYPRTFGQGTKVEIK
# notes: as for B12
# Molecular target: T1, human CD4 on human PBMCs (human, UniProt P01730 26-458)
# T1 construct: whole, on cells; the CD4-positive gate was set with the control antibodies OKT4 and RPA-T4; also called hCD4
# Assay: FACS, clonal hybridoma supernatant on human PBMCs
Binder,% CD4 Stain,gMFI of CD4+
B1,35.3%,160000 gMFI
B2,37.2%,133000 gMFI
B3,37.5%,56000 gMFI
B4,37.5%,185000 gMFI
B5,30.1%,217000 gMFI
B6,36.8%,284000 gMFI
B7,37.3%,197000 gMFI
B8,24.4%,56500 gMFI
B9,27.2%,31800 gMFI
B10,37.2%,147000 gMFI
B11,28.6%,123000 gMFI

# Molecular target: T2, Recombinant human CD4 (R&D Systems, Cat. 10327-CD) (human, UniProt P01730 26-390, limits assumed)
# T2 construct: Bought reagent; also called huCD4
# Assay: BLI Octet, non-clonal supernatant on AMC sensor, 100 nM human CD4, 1:1 local fit;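 also: Single-concentration kinetics per supernatant, with the 1:1 model fitted across both the association and dissociation phases of the sensorgram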
Binder,Kd,koff,kon
B12,9.6 nM,0.0032 s⁻¹,330000 M⁻¹ s⁻¹
B13,1.8 nM,0.00022 s⁻¹,120000 M⁻¹ s⁻¹
B14,< 0.001 nM,< 1e-07 s⁻¹,200000 M⁻¹ s⁻¹
B15,< 0.001 nM,< 1e-07 s⁻¹,150000 M⁻¹ s⁻¹
B16,0.68 nM,0.00013 s⁻¹,190000 M⁻¹ s⁻¹
B17,11 nM,0.0013 s⁻¹,120000 M⁻¹ s⁻¹
B18,13 nM,0.0014 s⁻¹,100000 M⁻¹ s⁻¹
B19,4.2 nM,0.0012 s⁻¹,290000 M⁻¹ s⁻¹
B20,0.79 nM,0.00013 s⁻¹,160000 M⁻¹ s⁻¹
B21,2.8 nM,0.00048 s⁻¹,170000 M⁻¹ s⁻¹
B22,3 nM,0.0006 s⁻¹,200000 M⁻¹ s⁻¹
B23,2.5 nM,0.00047 s⁻¹,190000 M⁻¹ s⁻¹
B24,2.04 nM,0.000315 s⁻¹,154000 M⁻¹ s⁻¹
B25,3.2 nM,0.00051 s⁻¹,160000 M⁻¹ s⁻¹
B26,1.1 nM,0.00013 s⁻¹,110000 M⁻¹ s⁻¹
B27,1.5 nM,0.00051 s⁻¹,330000 M⁻¹ s⁻¹
B28,5.2 nM,0.0012 s⁻¹,230000 M⁻¹ s⁻¹

# Molecular target: T2, Recombinant human CD4 (R&D Systems, …)
# Assay: BLI Octet, non-clonal supernatant on AMC sensor, 100 nM human CD4;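 also: hybridoma supernatants diluted 1:3, antibodies captured on AMC biosensors, association and dissociation with CD4 followed, curves smoothed and fit locally with 1:1 binding model for single-point kinetics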
row,Binder,Response
1,B12,0.09
2,B13,0.17
3,B14,0.03
4,B15,0.09
5,B16,0.24
6,B17,0.28
7,B18,0.12
8,B19,0.09
9,B20,0.21
10,B21,0.21
11,B22,0.26
12,B23,0.09
13,B24,0.12
14,B25,0.19
15,B26,0.26
16,B27,0.08
17,B28,0.14
